The values that follow come from article PMC5554173.

Data set [1] in a line: spotting on 7H11 OADC plates. As to conditions: glycan lost.
For data set [2] the following is noted: glycan lost.

B1: LprG (Rv1411c): LprG T231A (protein)
parent chain: MRTPRRHCRRIAVLAAVSIAATVVAGCSSGSKPSGGPLPDAKPLVEEATAQTKALKSAHMVLTVNGKIPGLSLKTLSGDLTTNPTAATGNVKLTLGGSDIDADFVVFDGILYATLTPNQWSDFGPAADIYDPAQVLNPDTGLANVLANFADAKAEGRDTINGQNTIRISGKVSAQAVNQIAPPFNATQPVPATVWIQETGDHQLAQAQLDRGSGNSVQMTLSKWGEKVQVTKPPVS
Turning to B1, in data set [1], the “other: colony formation on solid medium” value is reported as “no change”.

B2: LprG (Rv1411c): lprG A691G (T231A) (protein)
parent chain: MRTPRRHCRRIAVLAAVSIAATVVAGCSSGSKPSGGPLPDAKPLVEEATAQTKALKSAHMVLTVNGKIPGLSLKTLSGDLTTNPTAATGNVKLTLGGSDIDADFVVFDGILYATLTPNQWSDFGPAADIYDPAQVLNPDTGLANVLANFADAKAEGRDTINGQNTIRISGKVSAQAVNQIAPPFNATQPVPATVWIQETGDHQLAQAQLDRGSGNSVQMTLSKWGEKVQVTKPPVS
Turning to B2, the “other: invasion and growth in macrophages” value in data set [2] is “no change”.
